Data: patent US5962253A, “Oxidative decarboxylation of peptides catalyzed by flavoprotein EpiD” (Boehringer Ingelheim International GmbH, priority 1996, dated 1999)
Non-standard residues stand in square brackets, D forms with d. No end group written: not given here. hCys = N[C@@H](CCS)C(=O)O

Assays:
flavoprotein EpiD [1] = target: T1, flavoprotein EpiD (Staphylococcus epidermidis, UniProt P30197); experiment: Incubation of peptide libraries with EpiD, ES-MS and neutral loss mass spectrometry; format: biochemical, Staphylococcus epidermis; conditions: ES-MS and neutral loss scans
T1 construct: made in house; host or cells: E. coli K38 (pGP1-2, pT7-5epiD)
Protocol: Heptapeptide sublibraries with one variable amino acid residue (wherein the variable amino acid residue can be any one of the 20 common amino acids Ala, Arg, Asn, Asp, Cys, Gln, Glu, Gly, His, Ile, Leu, Lys, Met, Phe, Pro, Ser, Thr, Trp, Tyr, or Val) at positions 1-7 of the peptide substrate S^1 FNSYCC^7 (SEQ ID NO: 2) were synthesized and incubated with EpiD. Peptides were identified by their masses using product ion scans and neutral loss scans and by comparison of the mass spectra obtained after various incubation times. The heptapeptides with a single amino acid substitution at positions 1-4 were substrates of EpiD (Table 2). At positions 5-7 of the peptide, not all amino acid residues were possible, so the last three amino acids determined the substrate specificity for EpiD (Table 2). […]
Peptide libraries were dissolved to a concentration of 1-2 mg/ml in 20 mM Tris/HCl buffer (pH 8.0) containing 3 mM dithiothreitol. […] Neutral loss scans were recorded after 3 h of incubation.
Electrospray and Tandem Mass Spectrometry--Electrospray mass spectra (Bruins, A. P., et al., Anal. Chem. 59:2642-2646 (1987); Covey, T. R., et al., Rapid Commun. Mass Spectrom. 2:249-256 (1988)) were recorded on a triple quadrupole mass spectrometer API III with a mass range of m/z 10-2400 equipped with a nebulizer-assisted electrospray ("ion spray") source (Sciex, Thornbill, Ontario, Canada). […]

EpiD = EpiD (Staphylococcus epidermidis, UniProt P30197); conditions: cited from earlier work; for Reaction with EpiD: reducing conditions, reversed phase chromatography and ES-MS
flavoprotein EpiD [2] = target: T1, flavoprotein EpiD; experiment: EpiD enzyme assay, oxidative decarboxylation of single peptides (reversed phase chromatography, ES-MS); format: biochemical, Staphylococcus epidermis; set-up: key to Reaction with EpiD: +: reaction with EpiD; -: no reaction with EpiD occurred, this indicates that using the given assay conditions, no reaction product was detected; conditions: for Reaction with EpiD: single peptide determinations, 0.5-1 h at 37° C., pH 8.0, 3 mM dithiothreitol; for substrate of EpiD / reaction with EpiD (in words): single peptides
Excerpt: For the determination of the minimal size of the substrate, synthetic peptides with increasingly larger deletions of the amino terminus were used (Table 1). Reaction products were identified by their increasing hydrophobicity, increased absorption at 260 nm in 0.1% trifluoroacetic acid/H2 O/acetonitrile (FIGS. 19A and 19B), and the mass decrease of 46 Da as compared with the unmodified peptides. […] For a further study of the substrate specificity of EpiD, the heptapeptide SFNSYCC (SEQ ID NO: 2) was used. The serine and cysteine residues of the peptide SFNSYCC (SEQ ID NO: 2) form the COOH-terminal bicyclus of mature epidermin, and the possibility could not be excluded that amino acid exchanges in this peptide have an influence on the reaction with EpiD.
The method of the invention, which provides for the oxidative decarboxylation of a peptide, can be carried out in vitro under the following conditions, although it will be clear to those of ordinary skill in the art that the parameters given herein for carrying out the enzymatic reaction may be varied. The enzymatic reaction can be carried out at a temperature of 37° C. in 20 mMTris/HCl buffer (pH 8.0) containing 3 mM dithiothreitol, 1-2 μg of EpiD (the concentration of which is determined according to the method of Bradford, Anal. Biochem. 72:248-254 (1976)), and 10-50 μg of peptide, in a total volume of 1 ml. The enzymatic reaction is carried out for between 0.5 and 1 h.
Purification of EpiD and Enzyme Assay--EpiD was purified as described previously using E. coli expression plasmid pT7-5apiD (Kupke, T. et al, J. Bacteriol. 174:5354-5361 (1992)). The concentration of the EpiD solution was determined according to Bradford (Bradford, M. M., Anal. Biochem. 72:248-254 (1976)); the concentrations of the precursor peptide solutions were estimated by the absorbance at 205 nm using an extinction coefficient of 31 for a protein solution of 1 mg/ml (Janson, J. C., & Ryden, L., Methods Enzymol. 193:441-455 (1990)); the synthetic peptic substrates were weighed out. The enzyme was assayed for 0.5-1 h at 37° C. in 20 mM Tris/HCl buffer (pH 8.0) containing 3 mM dithiothreitol, 1-2 μg of EpiD, and 10-25 μg of precursor peptide or 50 μg of synthetic peptide in a total volume of 1 ml. The reaction mixture was then separated by reversed phase chromatography using a μRPC C2/C18 SC 2.1/10 column (Pharmacia Biotech Inc.). Peptides were eluted with a linear gradient of 0-50% acetronitrile, 0.1% trifluoroacetic acid in 3.8 ml with a flow rate of 200 μl/min. The absorbance was measured simultaneously at 214, 260, and 280 nm. The peptides were collected by the peak fractionation method, dried with a vacuum concentrator, stored at -70° C., dissolved in 30% acetonitrile, and analyzed by ES-MS.

[3] = Determination of the isoelectric point by isoelectric focusing and immunoblot; format: physicochemical; conditions: most basic band used
Protocol: Therefore, the modified peptides should be more basic than the educts. In order to verify this hypothesis, the isoelectric points of the products and the educts were determined. […] All of the bands were more basic than the educts, and for determination of the isoelectric points, the most basic bands were used. In the case of EpiAR-1Q -46 Da, the most basic band was the most intense band.
The peptide mixture Serva No. 39211 was used as an isoelectric focusing standard. Isoelectric focusing was carried out according to the instruction manual of Serva. The focused peptides were blotted on nitrocellulose and detected with an anti-MBP-EpiA antiserum (Kupke, T., et al., FEMS Lett. 112:43-48 (1993)) using the ECL system (Amersham Corp.).

EpiD, sequence (P30197 whole entry): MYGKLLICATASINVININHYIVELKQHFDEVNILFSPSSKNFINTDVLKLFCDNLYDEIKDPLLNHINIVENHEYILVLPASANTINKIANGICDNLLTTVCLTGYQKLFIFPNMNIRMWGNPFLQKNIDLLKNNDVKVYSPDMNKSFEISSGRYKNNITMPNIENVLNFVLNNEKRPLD
T1 sequence (P30197 whole entry): as above

Compound	Reaction with EpiD (flavoprotein EpiD [2])	substrate of EpiD / reaction with EpiD (in words) (flavoprotein EpiD [2])	further results
SFNSMCC			substrate of EpiD / reaction product in library (in words) (flavoprotein EpiD [1]): weak
[Zn+2] [Zn^2+, reference compound]			effect on the EpiD reaction (EpiD): inhibited
EpiAdesC^+22 (MEAVKEKNDLFNLDVKVNAKESNDSGAEPRIASKFICTPGCAKTGSFNSYC)	-	not all peptides with a COOH-terminal cysteine residue were a substrate of EpiD	
EpiAR-1Q: mutated EpiA with a mutation in the cleavage sequence of the EpiA leader (MEAVKEKNDLFNLDVKVNAKESNDSGAEPRIASKFICTPGCAKTGSFNSYCC)	+		isoelectric point [3]: 5.0 pH; Reaction with EpiD (EpiD): reacts
Synthetic proepidermin: chemically synthesized proepidermin (amino acids +1 to +22 of EpiA) (IASKFICTPGCAKTGSFNSYCC)	+		
EpiAS + 19A (MEAVKEKNDLFNLDVKVNAKESNDSGAEPRIASKFICTPGCAKTGSFNSYCC)	+	substrate for oxidative decarboxylation	
SFNSYGC	-		
K-EpiA (MEAVKEKNDLFNLDVKVNAKESNDSGAEPRIASKFICTPGCAKTGSFNSYCC)	+		
Proepidermin: COOH-terminal proepidermin fragment of EpiA (amino acids +1 to +22) (IASKFICTPGCAKTGSFNSYCC)	+		Reaction with EpiD (EpiD): reacts
SFNSYCC--NH2 (SFNSYCC-NH2; cysteine pairing not given here) [the amide of SFNSYCC]	-	not substrates of EpiD	
SFNSYCHCy (SFNSYC[hCys]; cysteine pairing not given here) [peptide SFNSYC with COOH-terminal homocysteine residue]	-	not substrates of EpiD	
EpiAC + 22S (MEAVKEKNDLFNLDVKVNAKESNDSGAEPRIASKFICTPGCAKTGSFNSYCC)	-	No reaction occurred	
